B1: ATf10 (dsDNA)
DNA 1: CGCGGGGCCGCCGCGAAAAAAAAAAACCC
DNA 2: GGGTTTTTTTTTTTCGCGGCGGCCCCGCG
B2: ATs10 (dsDNA)
DNA 1: GGGTTTTTTTTTTCGCGGCGGCCCCGCG
DNA 2: CGCGGGGCCGCCGCGAAAAAAAAAACCC
modifications: PS at the T10 tract linkages of the printed strand (GGGT*T*T*T*T*T*T*T*T*T*CGCG..); complementary strand unmodified
B3: CG10 (dsDNA)
DNA 1: GGGCCCCCCCCCCCGCGGCGGCCCCGCG
DNA 2: CGCGGGGCCGCCGCGGGGGGGGGGGCCC
B4: Mix10 (dsDNA)
DNA 1: GGGCGTGACTGAGCGCGGCGGCCCCGCG
DNA 2: CGCGGGGCCGCCGCGCTCAGTCACGCCC

Columns and labels:
HMGA1b (full length) [1] = molecular target: T1, HMGA1b (full length) (UniProt P17096-2 P17096-2:1-96); experiment: EMSA; nearly completely shifted at DNA:HMGA1 1:1.5; 25 mM Tris-HCl pH 6.5, 50 mM NaCl, 4 C; conditions: tags: expressed from pET-30b in E. coli BL21(DE3); TCA precipitation and Sephadex G-25; label: 5'-6-FAM
Experimental: (§1) The HMGA protein samples were prepared in 25 mM Tris-HCl (pH 6.5), 50 mM NaCl, and the concentrations determined based on UV […] absorbance (ε=38,200 mol-1 cm-1). […] Nature structural biology 4 (1997) 657-665, the disclosure of which is incorporated herein by reference in its entirety and incubated at 4° C. for 15 minutes prior to gel analysis. The protein-DNA complexes were resolved on a 7.5% polyacrylmide gel and run with TAE buffer at 20 mA for 2-3 hours at 4° C. The DNA was detected at 495 nm using the VersaDoc™ Imaging System Model 3000 from BIO-RAD Laboratories, Inc. of Hercules, Calif. (USA). The gels were further stained with coomassie blue and visualized by an AlphaImager (Alpha Innotech, San Leandro, Calif.).

HMGA1b (full length) [2] = molecular target: T1, HMGA1b (full length); experiment: competition; about half of ATf10 displaced at 1:1 ATf10:ATs10; similar affinity to unmodified DNA; conditions: tags: expressed from pET-30b in E. coli BL21(DE3); TCA precipitation and Sephadex G-25
Experimental: as §1

HMGA1b (full length) [3] = molecular target: T1, HMGA1b (full length); experiment: competition; equal amount did not interfere with HMGA1-ATf10 complex; 1:1 ATf10:HMGA1; conditions: tags: expressed from pET-30b in E. coli BL21(DE3); TCA precipitation and Sephadex G-25
Experimental: as §1

T1 sequence (P17096 other isoform, or with tags, fused parts or gaps): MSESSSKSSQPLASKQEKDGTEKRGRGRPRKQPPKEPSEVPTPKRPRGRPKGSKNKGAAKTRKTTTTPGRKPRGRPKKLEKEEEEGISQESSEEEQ

Row | Binder | binding result (HMGA1b (full length) [3]) | also measured
1 | B1 |  | binding result (HMGA1b (full length) [1]): binds
2 | B2 |  | binding signal (HMGA1b (full length) [2]): ~1 fold affinity vs ATf10
3 | B3 | no binding | 
4 | B4 | no binding | 
